B1: TCN-031 Fab fragment (Fab, V domains shown)
VH: EVQLVESGGGLVQPGGSLRISCAASGFTVSSNYMSWVRQAPGKGLEWVSVIYSGGSTYYADSVKGRFSFSRDNSKNTVFLQMNSLRAEDTAVYYCARCLSRMRGYGLDVWGQGTTVTVSS
VL: DIQMTQSPSSLSASVGDRVTITCRTSQSISSYLNWYQQKPGKAPKLLIYAASSLQSGVPSRFSGSGSGTDFTLTISGLQPEDFATYYCQQSYSMPAFGQGTKLEIK
B2: TCN-032 Fab fragment (Fab, V domains shown)
VH: QVQLQESGPGLVKPSETLSLTCTVSGSSISNYYWSWIRQSPGKGLEWIGFIYYGGNTKYNPSLKSRVTISQDTSKSQVSLTMSSVTAAESAVYFCARASCSGGYCILDYWGQGTLVTVSS
VL: DIQMTQSPSSLSASVGDRVTITCRASQNIYKYLNWYQQRPGKAPKGLISAASGLQSGVPSRFSGSGSGTDFTLTITSLQPEDFATYYCQQSYSPPLTFGGGTRVEIK
B3: 3260_D19 (antibody, V domains shown)
VH: DMQLVESGGGLVPPGGSLRLSCAASGFSVSDNYINWVRQAPGKGLDWVSVFYSADRTSYADSVKGRFTVSSHDSKNTVYLQMNSLRAEDTAVYYCARVQKSYYGMDVWGQGTTVTVSS
VL: GIQMTQSPSSLSASVGDRVTITCRASQSISRYLNWYLQKPGKAPKLLISGASSLQSGVPSRFSGTGSGTEFTLTISSLQPEDFATYYCQQTFSIPLFGQGTKVEIK
B4: 3242_P05 (antibody, V domains shown)
VH: DMQLVESGGGLVPPGGSLRLSCAASGFSVSDNYINWVRQAPGKGLDWVSVFYSADRTSYADSVKGRFTVSSHDSKNTVYLQMNSLRAEDTAVYYCARVQKSYYGMDVWGQGTTVTVSS
VL: GIQMTQSPSSLSASVGDRVTITCRASQSISRYLNWYLQKPGKAPKLLISGASSLQSGVPSRFSGTGSGTEFTLTISSLQPEDFATYYCQQTFSIPLFGQGTKVEIK
B5: 3259_J21 (antibody, V domains shown)
VH: QVQLQESGPRVVRPSETLSLTCTVSGGSISSYNWIWIRQPPGKGLEWIGHIYDYGRTFYNSSLQSRPTISVDASKNQLSLRLTSVTASDTAVYYCARPLGILHYYAMDLWGQGTTVTVSS
VL: DIQMTQSPLSVSVSVGDRVTIACRASQSIDKFLNWYQQKPGKAPKLLIYGASNLHSGAPSRFSASGSGTDFTLTITNIQTEDFATYLCQQSFSVPAFGGGTKVEIK
B6: 3248_P18 (antibody, V domains shown)
VH: QVQLQESGPGLVKPSETLSLTCTVSGGSISAYHWSWIRQPPGKGLEWIGHIFDSGSTYYNPSLKSRVTISLDASKNQLSLRLTSVTASDTAIYYCARPLGSRYYYGMDVWGQGTTVTVSS
VL: DIQMTQSPSSLSASVGDRVTITCRASQSISRYLNWYQQKPGKAPKLLIYGASTLQNGAPSRFSGSGSGTDFTLTISSLQPEDSATYLCQQSYSVPAFGGGTKVEVK
B7: 3241_G23 (antibody, V domains shown)
VH: QVQLQQSGPGLVKPSQTLSLTCTVSGGPVSGGGYSWNWIRQRPGQGLEWVGFMFHSGSPRYNPTLKSRITISVDTSKNLVSLKLSSVTAADTAVYFCARVGQMDKYYAMDVWGQGTTVTVSS
VL: DIQMTQSPSSLSSSVGDRVTITCRASQSIGAYVNWYQQKAGKAPQVLIFGASNLQSGVPSRFSGSGSGTDFTLTISSLQPEDFATYFCQQTYSTPITFGQGTRLEIK
B8: 3252_C13 (antibody, V domains shown)
VH: QVQLQESGPGLVKPSETLSLTCTVSGASISSDYWSWIRLPPGKGLEWIGYIYNRGSTKYTPSLKSRVTISLDTAENQFSLRLRSVTAADTAIYYCARHVGGHTYGIDYWGQGTLVTVSS
VL: DIQMTQSPSSLSASVGDRVTITCRASQSISNYLNWYQHKPGEAPKLLNYAASSLQSGVPSRFSASGSGTDFTLTISSLQPEDFATYYCQQSYNTPITFGQGTRLEIK
B9: 3362_B11 (antibody, V domains shown)
VH: QVQLQASGPGLVKPSETLSLTCTVSGDSITSGAYYWTWIRQHPGKGLEWIGYIYYSGNTYYNPSLKSRVTISLDTSKNQFSLKVNSVTAADTAVYYCARAASTSVLGYGMDVWGQGTTVTVSS
VL: DIQMTQSPSSLSASVGDRVTITCRASQSISRYLNWYQQEPGKAPKLLVYAASSLQSGVPSRFSGSGSGTDFTLTISSLQPEDFATYYCQQSYSTPLTFGQGTRLEIK
B10: 3420_I23 (antibody, V domains shown)
VH: QVQLQESGPGLVKPSETLSVTCKVSGDSISSYSWSWIRQPPGKGLEWVGYLYYSGSTKYNPSLKSRTTISVDTSTNQLSLKLSFVTAADTAVYFCARTGSESTTGYGMDVWGQGTTVTVSS
VL: DIQMTQSPSSLSASVGDRVTITCRASQSISTYLNWYQQKPGKAPKLLIYAASSLHSGVPSRFSGSGSGTDFALTISSLQPEDFATYYCQQSYSPPITFGQGTRLEIK
B11: 3255_J06 (antibody, V domains shown)
VH: QVQLQESGPGLVKPSETLSLTCTVSGASISSDYWSWIRLPPGKGLEWIGYIYNRGSTKYTPSLKSRVTISLDTAENQFSLRLRSVTAADTAVYYCARHVGGHTYGIDYWGQGTLVTVSS
VL: DIQMTQSPSSLSASVGDRVTITCRASQSISNYLNWYQHKPGEAPKLLNYAASSLQSGVPSRFSASGSGTDFTLSISGLQPEDFATYYCQQSYNTPITFGPGTRLEIK
B12: 3245_O19 (antibody, V domains shown)
VH: EVQLVESGGGLVQPGGSLRLSCTASGLSVSSTYMNWVRQAPGKGLEWVSVFYSETRTYYADSVKGRFTVSRHNSNNTLYLQMNSLRVEDTAVYYCARVQRLSYGMDVWGQGTTVTVSS
VL: DIQMTQSPSSLSASVGDRVTITCRASQSISTYLNWYQKRPGKAPKLLVYGASTLQSGVPSRFSGSGSGTDFTLTIASLQPEDSATYYCQQTYSIPLFGQGTRLEIK
B13: 3244_H04 (antibody, V domains shown)
VH: EVQLVESGGGLVQPGGSLRLSCTASGLSVSSTYMNWVRQAPGKGLEWVSVFYSETRTYYADSVKGRFTVSRHNSNNTLYLQMNSLRAEDTAVYYCARVQRLSYGMDVWGQGTTVTVSS
VL: DIQMTQSPSSLSASVGDRVTITCRASQSISTYLNWYQKRPGKAPKLLVYGASSLQSGVPSRFSGSGSGTDFTLTIASLQPEDSAVYYCQQTYSIPLFGQGTRLEIK
B14: 3139_P23 (antibody, V domains shown)
VH: QVQLQESGPRLVKPSESLSLTCTVSGGSISNSFWGWIRQPPGEGLEWIGYVYNSGNTKYNPSLKSRVTISRDTSKSQLYMKLRSVTAADTAVYYCARHDDASHGYSISWGHGTLVTVSS
VL: DIQMTQSPSSLSASVGDRVTITCRASQTISTYLNWYQQKSGKAPKLLIYAASGLQSGVPSRFSGSGSGTDFTLTISSLQPEDFATYFCQQSYNTPLTFGQGTKVEIK
B15: 3244_I10 (antibody, V domains shown)
VH: QVQLQESGPGLLKPSDTLALTCTVSGGSITSDYWSWIRQPPGRGLDWIGFFYNGGSTKYNPSLKSRVTISADTSKNQLSLKLTSVTAADTGVYYCARHDAKFSGSYYVASWGQGTRVTVSS
VL: DIQMTQSPSSLSASVGDRVTISCRASQSISTYLNWYQQQPGKAPKVLIFGATNLQSGVPSRFSGSGSGTDFTLTISSLQPEDFATYYCQQSYNTPLIFGQGTKLEIK
B16: 3253_P10 (antibody, V domains shown)
VH: QVQLQESGPGLLKPSDTLALTCTVSGGSITSDYWSWIRQPPGRGLDWIGFFYNGGSTKYNPSLKSRVTISADTSKNQLSLKLTSVTAADTGVYYCARHDAKFSGSYYVASWGQGTRVTVSS
VL: DIQMTQSPSSLSASVGDRVTISCRASQSISTYLNWYQQQPGKAPKVLISGATDLQSGVPSRFSGSGSGTDFTLTISSLQPEDFATYYCQQSYNTPLIFGQGTKLEIK
B17: 3243_J07 (antibody, V domains shown)
VH: QVQLQESGPGLLKPSDTLALTCTVSGGSITSDYWSWIRQPPGRGLDWIGFFYNGGSTKYNPSLKSRVTISADTSKNQLSLKLTSVTAADTGVYYCARHDVKFSGSYYVASWGQGTRVTVSS
VL: DIQMTQSPSSLSASVGDRVTISCRASQSISTYLNWYQQQPGKAPKVLISGATNLQSGVPSRFSGSGSGTDFTLTISSLQPEDFATYYCQQSYNTPLIFGQGTKLEIK
B18: 3136_G05 (antibody, V domains shown)
VH: QVQLQESGPGLVKPSETLSLTCSVSGGSISSDFWSWIRQPPGKGLEWIGYVYNRGSTKYSPSLKSRVTISADMSKNQFSLNMSSVTAADTAVYYCAKNGRSSTSWGIDVWGKGTTVTVSS
VL: DIQMTQSPSSLSASVGDRLTITCRASQSISTYLHWYQQKPGKAPKLLIYAASSLQSGVPSRFSGSRSGTDFTLTISSLQPDDFATYYCQQSYSPPLTFGPGTKVDMK

Each molecule was assayed against M2 protein on influenza A/Puerto Rico/8/34 (H1N1) virus particles (Influenza A virus A/Puerto Rico/8/34 …, UniProt P06821 1-97) (assay: surface plasmon resonance, Fab on influenza virus).
B1 was tested, and the Kd was 14 nM, the koff was 0.014 s⁻¹ and the kon was 1e+06 M⁻¹ s⁻¹. In the case of B2, the Kd is reported as 3.2 nM, the koff is reported as 0.0023 s⁻¹ and the kon is reported as 740000 M⁻¹ s⁻¹.

Each molecule was assayed against M2 protein of A/Puerto Rico/8/34 (H1N1), on cells (Influenza A virus A/Puerto Rico/8/34 (H1N1)) (UniProt P06821) (assay: flow cytometry on MDCK cells infected with A/Puerto Rico/8/34).
TCN-032 (antibody) gave an EC50 (read off the curve) of 0.1 µg/mL. For TCN-031 (antibody), the EC50 (read off the curve) was 0.2 µg/mL.

What follows are molecules tested against M2 protein of A/Hong Kong/483/1997, on cells (Influenza A virus A/Hong Kong/483/97 (H5N1)) (assay: FACS, supernatant on CHO cells stably expressing M2 of A/Hong Kong/483/97).
B3 showed an FACS M2-HK MFI of 846 MFI. For B4, the FACS M2-HK MFI was 596 MFI. In the case of B5, the FACS M2-HK MFI is reported as 1670 MFI. Molecule B6 has an FACS M2-HK MFI of 967 MFI. B7 gave an FACS M2-HK MFI of 1700 MFI. For B8, the FACS M2-HK MFI was 449 MFI. In the case of B9, the FACS M2-HK MFI is reported as 218 MFI. B10 gave an FACS M2-HK MFI of 112 MFI. With B11 the FACS M2-HK MFI was 442 MFI. B12 showed an FACS M2-HK MFI of 919 MFI. In the case of B13, the FACS M2-HK MFI is reported as 963 MFI. With B14 the FACS M2-HK MFI was 110 MFI. B15 gave an FACS M2-HK MFI of 434 MFI. B16 gave an FACS M2-HK MFI of 43 MFI. B17 showed an FACS M2-HK MFI of 131 MFI. B18 showed an FACS M2-HK MFI of 109 MFI.

From patent US20130158238A1 (THERACLONE SCIENCES, published 2013)
